Test: soluble on expression in E. coli; label from the status in PepcDB or PDB records

| Sequence | soluble on expression in E. coli |
| --- | --- |
| ICNKYKNINVNMKKNNDDTWTDLVKNSSDINKGVLLPPRRKNLFLKIDESDICKYKRDPKLFKDFIYSSAISEVERLKKVYGEAKTKVVHAMKYSFADIGSIIKGDDMMENNSSDKIGKILGDGVGQNEKRKKWWDMNKYHIWESMLSGYKHAYGNISENDRKMLDIPNNDDEHQFLRWFQEWTENFCTKRNELYENMVTACNSAKCNTSNGSVDKKECTEACKNYSNFILIKKKEYQSLNSQYDMNYKETKAEKKESPEYFKDKCNGECSCLSEYFKDETRWKNPYETLDDTEVKNNCMCK | soluble |
| MSLGNYNSQYENYYRNLQNRSIRTSSYYKSSGFNRKNLGEKIIKKIEFQLIGTLVLFLAVFSLREVITPETKAACNYIKYTVSYNYDYSQILSYIEGFNLNDVETYASKIDMDSLKNQSVDYIENLKARVTGEKTFGAKIKQEYCLPINGKIASHFKQKDKDVLGNQYLNNGVDIKANSDLDVKAIYDGTVEKVGEDKDFGKYVMVDNGDGVESKYSNMDSFEVQRGDGVTKGEVLGKVKKNDDASKSYLHFEIMYMGENQDPENYFTFKEGHHHHHH | not soluble |
| MTHLFALSELPLDEIHRLLDEAEAFRSGRIWRPAAPMYVANLFFEPSTRTKCSFEMAERKLGLHVIPFDPERSSVQKGETLYDTVRTLEAIGVDAVVIRHHEDAYFEALRHAVGIPIINAGDGCGHHPTQSLLDLLTIRQEFGAFTGLTVAIIGDIRHSRVARSNAEVLTRLGANVLFSGPAEWKDETNPYGTYVEVDEAIARADVVMLLRIQHERHAETMGLTKEEYHARYGLTLERARRMKSGAIILHPAPVNRGVEIASELVEAKASRIFKQMENGVYVRMAVLKRAMEGRMEHGRMAEKWHVVQ | soluble |
| MGSDKIHHHHHHMITFDEIIPGVTDILKEYSKELDQMAPILVNRDLNGRVRLIIKDDIRGNSHAEGVLDKISKALHQRLGAHGFPPERIVLFETDMQTVLAETPCFPLDGVEGVSVADRLVTESNWSKGIAPTETVPRIVFFSIKGGVGRSTSLAAAAWALAESGKRVLVLDMDLESPGLSSSLLPQDRRPKFGITDWLVEDLVDNGDRVISDMIATSPLSRNGDIYVVPAHGADPGEYIAKLGRVWMPKVNAEGRRILWVQRLQGLLNALEDRLKPDVILLDSRAGIDEVASACVTDLGASSVLLFALDGDQTWSGYRILFRHWRQSGVVRDIRERLQVVGAMIPDVDAAGYYADLLESSWNAFSEELYDEIPAGLSANGEDYWNFDQADEAAPHYPWSIRWNRGFSAMRSLHNRFDTVDAEQVNYVFGDFLTGLAASVQNEEDER | not soluble |
| MSRPPLPPFTRETATQKVRMAEDAWNSRDPARVSLAYTPDSRWRNRAEFLQGRDAIVEFLTRKWAKEHDYRLIKDLWAFDGRFIAVRFQYEWRDEAGLWYRSYGNEQWEFDDDGLMRRREASINDVAISEGDRRFHWPAPGPRPDDVPGLAADPFLEHHHHHH | soluble |
| MGSDKIHHHHHHMMRLLCFIDYLGSGGAQRQLTFLARHLKKSGVDVEVLTYHESDFFIPVLAEAGINVETVRGGGRFTKVFSLRKSIRARKFDVLLAFLNAPALYAEIAALPRRRWGLVVSERLAVPGSSMGFARFRRYLHGLADYVTTNSHTNRLLIEKAVPGLTGKVVTIYNALDLEYFSPLQGPVPAGDGRLRFVVLASHQLKKNLLGLVEAAHQVVQAAPELDFTIEWFGRFDAGKNGPGDTGPFEQAKRRIETFRIQDRFIFSEPTSDVAAVYRRADALILPSFYEGLPNVVCEAMACGRPVLMSNVCDAENLVREGDNGFLFDPRDPADMARAILRFAALSGDDRKLMGEKSRKRAVILFNPERFAAHYRRVLESAMRREQTIIPHWCESIPQSAIRMIENEK | not soluble |
| MSPKVTKEHKDKRQAEILEAAKTVFKRKGFELTTMKDVVEESGFSRGGVYLYFSSTEEMFRRIIETGLDEGLRKLDKSAEHQSVWASISSYLDELTEGLRDVADTLAPVQFEYLVTAWRNEERRQYLEKRYDLFVERFSRLLQKGIDQGEFQPVQPLATIAKFFLNMNDGIIQNALYFDEEKADVSGLAESAKLYLKTVLQADEK | soluble |

Source: the DeepSol protein solubility set
